This note sets out measurements from article PMC10383791, “Evaluation of [^18F]AlF-EMP-105 for Molecular Imaging of C-Met” (Pharmaceutics, 2023).

Entries after “also recorded” stand apart in the source; their conditions may differ. Bridge positions count the residues as written; N and C are the ends. Ends that are not written are not given here. Peptide text beside a SMILES is read from it. * marks the point of attachment. NOTA = O=C(O)CN1CCN(CC(=O)O)CCN(CC(=O)*)CC1

For one data set, the system named is H1975 cells. Nature of the data set: Internalisation assay of EMI-137 by flow cytometry. It is filed as cell-based. Here is the method:
(§1) H1975 (non-small cell lung cancer), HEPG2a (hepatocellular carcinoma), HT29 (colorectal cancer) were purchased from ATCC. OE21 (oesophageal squamous cell carcinoma) was obtained from Prof George Hanna. H1975 and OE21 cells were maintained in RPMI-1640 media (Sigma-Aldrich) supplemented with 10% fetal calf serum (Sigma-Aldrich), 1% L-glutamine, and 2% penicillin/streptomycin (Sigma-Aldrich). HEPG2a and HT29 cells were cultured in DMEM (Sigma-Aldrich) containing 10% fetal calf serum, 1% L-glutamine, and 2% penicillin/streptomycin. All cell lines were cultured at 37 °C and 5% CO2.
H1975 cells were seeded in a 6-well plate at a seeding density of 500,000 cells/well, 24 h prior to performing internalisation assay. […] Subsequently, cells were washed with ice-cold PBS three times. To determine internalisation levels at 4 °C, surface-bound EMI-137 was removed by washing the cells with 50 mM of glycine prepared in 150 mM NaCl (Sigma) for 5 min followed by three washes with ice-cold PBS. […] Data were presented as mean Fluorescence Intensity (MFI). The internalised fraction was determined by subtracting the surface-bound EMI-137 from total EMI-137. The percentage of internalised fraction was calculated by dividing the amount of internalised EMI-137 by total-bound EMI-137 multiplied by 100%. Unstained controls were used to define gates and adjust fluorescence compensation.
(In general: Flow cytometry measures light scatter and fluorescence of single cells or particles in a stream.)

The test system of data set [1] is HEPG2a. The data set is described as follows: Flow cytometry uptake of EMI-137 (c-Met expression level). It is filed as cell-based. To be noted: HEPG2a (negative control), 50 nM, 1 h, 37 °C. Here is the method: as §1
(§2) Approximately 500,000 cells were seeded in 6-well plates and cultured for 24 h at 37 °C and 5% CO2. Cells were washed with warm PBS and incubated with 50 nM EMI-137 for 1 h at 37 °C and 5% CO2. Subsequently, cells were washed with ice-cold PBS three times prior to sample acquisition via FACS Canto flow cytometer (Becton Dickinson Immunocytometry Systems, Franklin Lakes, NJ, USA) with FACS Diva Software version 4.0.2. The obtained data were analysed using FlowJo software v7.6 (FlowJo, LLC, Ashland, OR, USA). Unstained controls were used to define gates and adjust fluorescence compensation.

The test system of data set [2] is HT29. The description is as above. As to conditions: 50 nM, 1 h, 37 °C. It is filed as cell-based. How it is done:
as §1, §2

Data set [3] has as its system OE21. Described as above. To be noted: 50 nM, 1 h, 37 °C. It counts as cell-based. Here is the method: as §1, §2
For data set [4], the system named is H1975. Described as above. It counts as cell-based. To be noted: 50 nM, 1 h, 37 °C. How it is done: as §1, §2
Data set [5] can be described thus: Radioactive metabolite analysis in tissues by radio-HPLC. To be noted: mouse i.v., mean ± s.d., n = 3. Here is the method:
For metabolite analysis, radio-HPLC chromatograms were obtained using an Agilent 1100 system equipped with an in-line posiRAM metabolite detector (Lablogic, Sheffield, UK). The same column and mobile phase were used.
In female BALB/c mice at 5 and 30 min p.i. of [^18F]AlF-NOTA-EMP-105, four key tissues (blood plasma, liver, kidney and urine) were analysed for radioactive metabolites by radio-HPLC. The retention time of free [^18F]fluoride and the parent compound [^18F]AlF-EMP-105 were determined by injecting a pure sample of each onto the metabolite radio-HPLC system.
The liver and kidneys were excised, and homogenised in ice cold MeCN:H2O (1 mL, 1:2 v/v) using a Precellys tissue homogeniser fitted with a Cryolys cooling module (Stretton Scientific Ltd., Derbyshire, UK). The homogenate was centrifuged (13,000× g, 5 min), the supernatant was removed, filtered (0.22 µm syringe filter) and diluted in water prior to RP-HPLC analysis. Urine was diluted in water and filtered prior to HPLC analysis. Plasma was obtained from whole blood by centrifugation (2000× g, 10 min) to separate the blood cells from the plasma. Plasma were precipitated with ice cold MeCN:H2O (1 mL, 1:2 v/v), and centrifuged (13,000× g, 5 min) to pellet the proteins. The supernatant was filtered and diluted in water for radio-HPLC analysis. The HPLC injection loop was washed with MeCN:H2O 1:1 v/v (1 mL) and then 5:95 v/v (1 mL) between each injection. The extraction efficiency from each tissue sample was determined by counting the activity (counts per minute, CPM) of a small aliquot (20 µL) of the supernatant of a known volume and the whole protein pellet, in a γ-counter.

The next data set is described as follows: in vitro. To be noted: human, human serum. Here is the method:
(§3) Analytical radio-HPLC chromatograms were obtained using an Agilent 1200 series instrument equipped with a flow-ram detector (Lablogic, Sheffield, UK), and integrated using Laura 6 software (Lablogic, Sheffield, UK). Column: phenomenex Aeris^TM 3.6 µm WIDEPORE C4 200 Å. Mobile phase: 0.1% TFA H2O:MeCN 95:5 v/v to 5:95 v/v, 0.8 mL/min flow rate.
(§4) A fraction of purified [^18F]AlF-EMP-105 (10 MBq in ~10 µL EtOH) was incubated, respectively, in 1000 µL of EtOH, PBS, RPMI, human serum and EDTA (0.02% in 0.5 mM DPBS) at 37 °C, and analysed by RP-HPLC at 1, 2, 3, and 4 h time points. For stability towards radiolysis, aliquots of >2 GBq of purified [^18F]AlF-EMP-105 eluted from the cartridge in ethanol (75% in 10 mM H3P0_4) or formulated in PBS solution containing 7.5% ethanol and 5 mg/mL (10 mL) of 4-aminobenzoic acid (PABA) as radioprotectant were analysed by RP-HPLC.

Data set [6] relates to HEPG2a. The data set is described as follows: In vitro radioactive uptake with and without EMI-137 blocking. It counts as cell-based. To be noted: HEPG2a (negative control); ~0.74 MBq, 60 min, 37 °C; gamma counting; mean ± SEM. Here is the method:
as §1
(§5) Cells were seeded at appropriate densities (~500,000 cells/well in a 6-well plate) and allowed to attach overnight. On the day of uptake, cells were washed three times with warm PBS and incubated with 1 mL of fresh media containing approximately 0.74 MBq of [^18F]AlF-EMP-105, with or without 100× molar equivalent of EMI-137 (blocking compound), in a humidified condition with 5% CO2 at 37 °C for 60 min. After 60 min of incubation, the cells were washed with ice-cold PBS (3 times), then lysed in 1 mL of RIPA buffer for 10 min on ice. Following this step, radioactivity from 800 µL of lysate from each sample was counted on a WIZARD2® Automatic Gamma Counter. To determine the specificity of uptake, data were expressed as a percentage of radioactivity incorporated into cells, in untreated cells compared to cells blocked with EMI-137.

Data set [7] relates to HT29. The data set is described as above. It counts as cell-based. As to conditions: ~0.74 MBq, 60 min, 37 °C, gamma counting, mean ± SEM. How it is done: as §1, §5
In data set [8] the test system is OE21. Described as above. As to conditions: ~0.74 MBq, 60 min, 37 °C, gamma counting, mean ± SEM. It is filed as cell-based. How it is done: as §1, §5
The test system of data set [9] is H1975. Described as above. It counts as cell-based. As to conditions: ~0.74 MBq, 60 min, 37 °C, gamma counting, mean ± SEM. How it is done: as §1, §5
A short description of another data set: physchem. How it is done: as §3, §4
For data set [10] the following is noted: dynamic PET 60 min, TACs, healthy mice, i.v. How it is done: Female BALB/c mice (6–8 weeks old) were anaesthetized with 2% isoflurane/O2. Imaging was performed using a Siemens Inveon small-animal multimodality PET/CT system (Siemens Medical Solutions USA, Inc., Knoxville, TN, USA). After completion of the CT scan, [^18F]AlF-EMP-105 (4.6 ± 1.2 MBq) was injected intravenously via the lateral tail vein. Dynamic emission scans were acquired in list-mode format for 60 min. Image data were processed as 0.5 mm sinogram bins and 33 time-frames, and reconstructed using the 2D-ordered subsets expectation maximization (2D-OSEM) algorithm with CT-based attenuation correction. The following frame durations were used: 12 × 5 s, 4 × 15 s, 6 × 30 s, and 11 × 300 s. Images were analysed using Inveon Research Workplace software (Siemens Healthcare Molecular Imaging, Knoxville, TN, USA). PET and CT images were co-registered and used to draw 3-dimensional regions of interests (ROIs) over tissues to obtain time–activity curves (TACs). Decay-corrected tissue time versus radioactivity curves (TACs) were generated and normalized to whole-body activity to obtain normalized uptake values (NUVs).

With “AGSCYCSGPPRFECWCYETEGT-Cy5 (also: cyclic, ring closure not given here) [EMI-137]”, the “Internalisation of EMI-137” value in the data set with H1975 cells (0, 5, 15 and 30 min at 37 °C after 30 min at 4 °C, glycine wash) was “increased with time”. Moreover, in the data set with H1975 cells (50 nM, 30 min), the “Difference in uptake at 37 °C versus 4 °C” value is “the difference was not significant”. For the same compound, the “Fluorescent uptake of EMI-137” value with HEPG2a [1] is recorded as “low uptake”; in the data set with HT29 [2] it was “High uptakes”; with OE21 [3], “High uptakes”; in the data set with H1975 [4], “High uptakes”.
Turning to `CC(=O)N[C@@H](C)C(=O)NCC(=O)N[C@@H](CO)C(=O)N[C@H]1CSSC[C@@H](C(=O)N[C@@H](Cc2ccc(O)cc2)C(=O)N[C@@H](CCC(=O)O)C(=O)N[C@H](C(=O)N[C@@H](CCC(=O)O)C(=O)NCC(=O)N[C@H](C(=O)NCC(=O)NCC(=O)NCC(=O)N[C@@H](CCCCNC(=O)CN2CCN(CC(=O)O)CCN(CC(=O)O)CC2)C(N)=O)[C@@H](C)O)[C@@H](C)O)NC(=O)[C@H](Cc2c[nH]c3ccccc23)NC(=O)[C@@H]2CSSC[C@H](NC(=O)[C@H](Cc3ccc(O)cc3)NC1=O)C(=O)N[C@@H](CO)C(=O)NCC(=O)N1CCC[C@H]1C(=O)N1CCC[C@H]1C(=O)N[C@@H](CCCNC(=N)N)C(=O)N[C@@H](Cc1ccccc1)C(=O)N[C@@H](CCC(=O)O)C(=O)N2` [[^18F]AlF-EMP-105] (Ac-AGSCYCSGPPRFECWCYETEGTGGGK(NOTA)-NH2; disulfide 4-16, 6-14), the “Percentage of [^18F]AlF-EMP-105 Remaining” value in data set [5] (kidney, 5 min p.i.) is reported as 9.8 ± 12.9%; in data set [5] (kidney, 30 min p.i.), 4.3 ± 4.3%; in [5] (liver, 5 min p.i.), 6.2 ± 10.8%; in [5] (liver, 30 min p.i.) it was 0.4 ± 0.7%; in [5] (plasma, 5 min p.i.), 98.3 ± 1.1%; in data set [5] (plasma, 30 min p.i.), 93.3 ± 7.4%. For the same compound, the “Percentage of [^18F]AlF-EMP-105 Remaining” value in data set [5] (urine, 30 min p.i.) was found to be 7.9 ± 9.2%. Moreover, the fraction remaining (as a rule, what is left of the initial amount, in per cent) at 1 h, 9.9 MBq/mL in “in vitro” amounted to 99%; in the data set “physchem” (EDTA (0.02% in 0.5 mM DPBS)) it was 99%; in “physchem” (PBS), 98%; in “physchem” (RPMI media), 97%. Also, the share remaining at 2 h, 9.9 MBq/mL in “in vitro” was found to be 99%; in “physchem” (EDTA (0.02% in 0.5 mM DPBS)), 99%; in “physchem” (PBS), 97%; in the data set “physchem” (RPMI media), 97%. For the same compound, the amount remaining at 3 h, 9.9 MBq/mL turned out to be 98% in “in vitro”, 98% in “physchem” (EDTA (0.02% in 0.5 mM DPBS)), 95% in the data set “physchem” (PBS) and 97% in “physchem” (RPMI media). In addition, the amount remaining at 4 h, 9.9 MBq/mL is 97% in “in vitro”, 98% in the data set “physchem” (EDTA (0.02% in 0.5 mM DPBS)), 95% in the data set “physchem” (PBS) and 92% in “physchem” (RPMI media). Moreover, the “Change in radioactive uptake when blocked with 100-fold of EMI-137” value in the data set on HEPG2a [6] was “not significant; also recorded: not observed”; in the data set on HT29 [7] it was “significant decrease; also recorded: statistically significant decreases”; in the data set on OE21 [8], “significant decrease; also recorded: statistically significant decreases”; with H1975 [9] it was “significant decrease; also recorded: statistically significant decreases”. The “Time at which activity peaked, heart, lung and liver” value in data set [10] (heart, lung and liver) is reported as 1 min. In addition, in data set [10] (kidneys), the “Time at which activity peaked, kidneys” value was 2.5 min.
